Literature values in article PMC5700508.

Target: transferrin receptor (Homo sapiens) (UniProt P02786)
Sequence (P02786 101-760): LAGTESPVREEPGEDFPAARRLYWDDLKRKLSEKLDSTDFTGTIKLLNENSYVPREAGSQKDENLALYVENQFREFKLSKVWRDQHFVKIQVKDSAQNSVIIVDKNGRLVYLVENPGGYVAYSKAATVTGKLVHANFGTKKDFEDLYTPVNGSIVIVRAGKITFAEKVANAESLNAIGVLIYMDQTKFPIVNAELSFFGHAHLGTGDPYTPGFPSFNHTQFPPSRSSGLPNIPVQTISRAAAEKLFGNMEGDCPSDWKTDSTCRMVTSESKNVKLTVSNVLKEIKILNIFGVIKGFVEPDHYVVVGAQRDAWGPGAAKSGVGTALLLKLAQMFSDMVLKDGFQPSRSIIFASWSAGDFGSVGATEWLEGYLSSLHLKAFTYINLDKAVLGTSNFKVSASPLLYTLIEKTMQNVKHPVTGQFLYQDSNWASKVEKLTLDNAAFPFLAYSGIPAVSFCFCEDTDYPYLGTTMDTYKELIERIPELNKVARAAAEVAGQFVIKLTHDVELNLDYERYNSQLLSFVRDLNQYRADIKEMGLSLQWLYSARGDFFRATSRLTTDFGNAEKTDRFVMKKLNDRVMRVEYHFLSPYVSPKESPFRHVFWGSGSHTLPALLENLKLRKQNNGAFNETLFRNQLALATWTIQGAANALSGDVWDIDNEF

T7 peptide
Kd: 0.01 µM
